Residue numbers refer to the chain shown, from its start.
Experiments:
Test in all cases: ITC; ligand (peptide or CAR-1 fragment, 0.5 mM) injected into CGH-1_(248-420) or mutant (0.05 mM) in the cell; 20 °C; Buffer B (20 mM Tris-HCl pH 7.5, 150 mM NaCl); one-binding-site model
Details in all cases: both partners purified
CGH-1_(248–420) Y386A = molecular target: T1, CGH-1_(248–420) Y386A (C. elegans, UniProt Q95YF3 248-420, Y386A)
T1 construct: Mutant of m1 made with the MutanBEST kit; source: E. coli Gold (DE3), purified (Ni-chelating resin, SEC Superdex 75)
T1 sequence (looked up): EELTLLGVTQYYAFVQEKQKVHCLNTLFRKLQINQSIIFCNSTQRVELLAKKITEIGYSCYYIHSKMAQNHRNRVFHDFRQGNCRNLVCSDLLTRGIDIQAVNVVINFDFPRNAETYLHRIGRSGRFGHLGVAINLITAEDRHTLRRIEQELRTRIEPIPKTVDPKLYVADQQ

CGH-1_(248–420) K277E = molecular target: T2, CGH-1_(248–420) K277E (C. elegans, UniProt Q95YF3 248-420, K277E)
T2 construct: Mutant of m1 made with the MutanBEST kit; source: E. coli Gold (DE3), purified (Ni-chelating resin, SEC Superdex 75)
T2 sequence (looked up): T1 sequence (looked up) with K30E, A139Y

CGH-1_(248–420) V262A = molecular target: T3, CGH-1_(248–420) V262A (C. elegans, UniProt Q95YF3 248-420, V262A)
T3 construct: Mutant of m1 made with the MutanBEST kit; source: E. coli Gold (DE3), purified (Ni-chelating resin, SEC Superdex 75)
T3 sequence (looked up): T1 sequence (looked up) with V15A, A139Y

CGH-1_(248–420) F261A = molecular target: T4, CGH-1_(248–420) F261A (C. elegans, UniProt Q95YF3 248-420, F261A)
T4 construct: Mutant of m1 made with the MutanBEST kit; source: E. coli Gold (DE3), purified (Ni-chelating resin, SEC Superdex 75)
T4 sequence (looked up): T1 sequence (looked up) with F14A, A139Y

B1: PATR-1 peptide (CePATR-1_(30–67)) (peptide)
peptide: SDEDHNIFDDEFDAANDETFGGGLDNIGENAELENYAT
notes: PATR-1 (Pat1 ortholog), C. elegans, residues 30-67; Printed with free NH2 and COOH ends; also called PATR1_30-67^WT; CePATR-1 peptide; source: synthetic peptide (GL Biochem, Shanghai)
CGH-1_(248–420) Y386A
  Kd: 4.19 ± 0.58 µM
  dH: -14.2 ± 0.56 kcal/mol
  stoichiometry N: 0.85
CGH-1_(248–420) K277E
  Kd: 8.29 ± 0.99 µM
  dH: -19.6 ± 0.95 kcal/mol
  stoichiometry N: 1.07
CGH-1_(248–420) V262A
  Kd: 4.94 ± 0.79 µM
  dH: -17.3 ± 0.82 kcal/mol
  stoichiometry N: 0.84
CGH-1_(248–420) F261A
  Kd: 6.62 ± 1.05 µM
  dH: -13 ± 0.7 kcal/mol
  stoichiometry N: 0.76
